In PMC3664827:

Test system: Lsr2 (Mycobacterium tuberculosis)
Assay: magnetic tweezers

How did the Kd turn out when lambda DNA 48,502 bp was run?
Its Kd is 57.5 nM.
